Measured values from patent US20020143164A1, “Ras activator nucleic acid molecules, polypeptides and methods of use” (priority 1999, published 2002).

Experiments:
Ras [1] = test: In vitro GEF assay (32P-α-GTP binding to Ras); format: biochemical
Method: Full length (GRF4) or CDC25-deleted (ΔCDC25) GRF4, or GRF2, each Flag-tagged, were immunoprecipitated from transfected Hek-293T cells using anti Flag antibodies. Equal amounts of immunoprecipitates were washed with GEF lysis buffer, equilibrated with GEF assay buffer and incubated with 32P-α-GTP (diluted in cold GTP) plus 100 ng of Ras for 30 min. Bound and unbound radiolabelled GTP were then separated by filtration, and the amount of bound GTP determined by scintillation counting, as detailed in the Method section. Fold Ras activation was compared to the activation of Ras in the absence of GRFs (which was set to 1).
GRF4 has a RasGRF(GEF) activity/function. To show its GEF activity, we performed in-vitro GEF assays. Briefly, GST-Ras was added alone (tubes 1 and 2) or along with GST-CDC25, or immunoprecipitated full-length of GRF4 (tubes 3 and 4). All tubes contained assay mixture including cold GTP and P32 alpha GTP. The exchange reactions were stopped at the indicated times. The stopped reaction mixtures were passed through nitrocellulose filters which were then washed with stop buffer to separate bound and unbound nucleotides. Filters were dried and then quantified by scintillation counting to determine bound CPM. The labeled nucleotides trapped on the washed filters were assumed to be Ras-associated. The difference in bound CPM over 30 minute period was determined for reactions where GST-Ras was added alone (it is the difference in bound CPM between tubes 1 and 2) and where GST-Ras was added with a GEF (it is the difference in bound CPM between tubes 3 and 4).

Ras [2] = settings: reference 23; cited from earlier work
Ras [3] = test: Ras activation assay in living cells, GRF4 and deletion mutants expressed in HEK-293T cells; format: cell-based, human; settings: HEK-293T cells treated with 8-Br-cAMP
Method: HEK-293T cells were transfected with vector alone, GRF4 (WT), GRF4 lacking its cNMP-BD (ΔcNMP-BD) or its CDC25 domain (ΔCDC25), and then treated (or not) with 8-Br-cAMP. Cell lysates were then incubated with GST-Raf1-RBD to precipitate active Ras, and immunobloited with anti Ras antibodies as above (upper panel). Lower panels are controls for total endogenous Ras and transfected GRF4 or its mutants.
Flag, HA or myc tags was added to the N-terminus of full length GRF4 using PCR, and subcloned into the mammalian expression vector pCMV5 (Invitrogen). Mutants GRF4 with deletion of the CDC25 domain (residue 711-1007, GRF4DCDC25 or DCDC25 for short), the cNMP-BD (residue 134-254, DcNMP-BD), the PLPF motif in the PDZ domain (residue 396-399, -PLPF), or bearing mutations in the PDZ-binding motif (SAV to AAA), were generated using PCR. The GST-GRF4-cNMP-BD (residue 101-303) and GST-Carboxy-terminus (residue 1348-1499) were PCR-generated and cloned into pGEX-2T ( Pharmacia). The latter construct was used to generate a fusion protein (GST-GRF4C terminus) which was used to immunize rabbits for the generation of polyclonal anti GRF4 antibodies.
HEK-293T cells were transfected as above, serum starved overnight and then subjected to various treatments, as described in the text. […] GTP in the lysates was determined using activation specific probes as described. Briefly, to determined the levels of active Ras (Ras-GTP) in cell, sepharose-bound GST fusion protein of the Ras-binding domain (RBD) of Raf-1 (GST-Raf1-RBD; Upstate Biotechnology Inc.) was used to precipitate Ras-GTP from cell lysates, and the amount of Ras-GTP determined by immunoblotting with anti Ras antibodies (Quality Biotech). Similarly, to determine the level of Rap1-GTP in cell lysates, sepharose-bound GST fusion proteins of the Rap1-binding domain of RaIGDS (GST-RaIGDS-RBD) were used to precipitate Rap1-GTP, which was then detected on a Western blot using anti-Rap1 antibodies (Transduction Lab).

B1: GRF2: Flag-tagged full-length RasGRF2, positive control GEF for Ras (protein, UniProt O14827 1-1237, looked up)
chain: MQKSVRYNEGHALYLAFLARKEGTKRGFLSKKTAEASRWHEKWFALYQNVLFYFEGEQSCRPAGMYLLEGCSCERTPAPPRAGAGQGGVRDALDKQYYFTVLFGHEGQKPLELRCEEEQDGKEWMEAIHQASYADILIEREVLMQKYIHLVQIVETEKIAANQLRHQLEDQDTEIERLKSEIIALNKTKERMRPYQSNQEDEDPDIKKIKKVQSFMRGWLCRRKWKTIVQDYICSPHAESMRKRNQIVFTMVEAESEYVHQLYILVNGFLRPLRMAASSKKPPISHDDVSSIFLNSETIMFLHEIFHQGLKARIANWPTLILADLFDILLPMLNIYQEFVRNHQYSLQVLANCKQNRDFDKLLKQYEANPACEGRMLETFLTYPMFQIPRYIITLHELLAHTPHEHVERKSLEFAKSKLEELSRVMHDEVSDTENIRKNLAIERMIVEGCDILLDTSQTFIRQGSLIQVPSVERGKLSKVRLGSLSLKKEGERQCFLFTKHFLICTRSSGGKLHLLKTGGVLSLIDCTLIEEPDASDDDSKGSGQVFGHLDFKIVVEPPDAAAFTVVLLAPSRQEKAAWMSDISQCVDNIRCNGLMTIVFEENSKVTVPHMIKSDARLHKDDTDICFSKTLNSCKVPQIRYASVERLLERLTDLRFLSIDFLNTFLHTYRIFTTAAVVLGKLSDIYKRPFTSIPVRSLELFFATSQNNRGEHLVDGKSPRLCRKFSSPPPLAVSRTSSPVRARKLSLTSPLNSKIGALDLTTSSSPTTTTQSPAASPPPHTGQIPLDLSRGLSSPEQSPGTVEENVDNPRVDLCNKLKRSIQKAVLESAPADRAGVESSPAADTTELSPCRSPSTPRHLRYRQPGGQTADNAHCSVSPASAFAIATAAAGHGSPPGFNNTERTCDKEFIIRRTATNRVLNVLRHWVSKHAQDFELNNELKMNVLNLLEEVLRDPDLLPQERKAAANILRALSQDDQDDIHLKLEDIIQMTDCMKAECFESLSAMELAEQITLLDHVIFRSIPYEEFLGQGWMKLDKNERTPYIMKTSQHFNDMSNLVASQIMNYADVSSRANAIEKWVAVADICRCLHNYNGVLEITSALNRSAIYRLKKTWAKVSKQTKALMDKLQKTVSSEGRFKNLRETLKNCNPPAVPYLGMYLTDLAFIEEGTPNFTEEGLVNFSKMRMISHIIREIRQFQQTSYRIDHQPKVAQYLLDKDLIIDEDTLYELSLKIEPRLPA
modifications: full-length Flag tag
notes: Flag-tagged full-length RasGRF2, positive control GEF for Ras
Fold Ras activation in vitro (activation without GRFs set to 1) (Ras [1]; immunoprecipitated Flag-tagged protein, 100 ng Ras, 30 min): 4.5 fold
Binding to nucleotide-bound forms of Ras, similar experiments (Ras [2]): bind only to EDTA-treated Ras

B2: isolated CDC25 domain of GRF4: Isolated CDC25 catalytic domain of GRF4 (protein)
chain: SLLQLSTVEVATQLSMRNFELFRNIEPTEYIDDLFKLRSKTSCANLKRFEEVINQETFWVASEILRETNQLKRMKIIKHFIKIALHCRECKNFNSMFAIISGLNLAPVARLRTTWEKLPNKYEKLFQDLQDLFDPSRNMAKYRNVLNSQNLQPPIIPLFPVIKKDLTFLHEGNDSKVDGLVNFEKLRMIAKEIRHVGRMASVNMDPALMFRTRKKKWRSLGSLSQGSTNATVLDVAQTGGHKKRVRRSSFLNAKKLYEDAQMARKVKQYLSNLELEMDEESLQTLSLQCEPATNT
In vitro GEF activity on Ras (Ras [1]): unable to demonstrate significant activation

B3: ACDC25: Mutant GRF4 with deletion of the CDC25 domain (residue 711-1007) (protein)
chain: MKPLAIPANHGVMGQQEKHSLPADFTKLHLTDSLHPQVTHVSSSHSGCSITSDSGSSSLSDIYQATESEAGDMDLSGLPETAVDSEDDDDEEDIERASDPLMSRDIVRDCLEKDPIDRTDDDIEQLLEFMHQLPAFANMTMSVRRELCAVMVFAVVERAGTIVLNDGEELDSWSVILNGSVEVTYPDGKAEILCMGNSFGVSPTMDKEYMKGVMRTKVDDCQFVCIAQQDYCRILNQVEKNMQKVEEEGEIVMVKEHRELDRTGTRKGHIVIKGTSERLTMHLVEEHSVVDPTFIEDFLLTYRTFLSSPMEVGKKLLEWFNDPSLRDKVTRVVLLWVNNHFNDFEGDPAMTRFLEEFENNLEREKMGGHLRLLNIACAAKAKRRLMTLTKPSREAPLPFILLGGSEKGFGIFVDSVDSGSKATEAGLKRGDQILEVNGQNFENIQLSKAMEILRNNTHLSITVKTNLFVFKELLTRLSEEKRNGAPHLPKIGDIKKASRYSIPDLAVDVEQVIGLEKVNKKSKANTVGGRNKLKKILDKTRISILPQKPYNDIGIGQSQDDSIVGLRQTKHIPTALPVSGTLSSSNPDLLQSHHRILDFSATPDLPDQVLRVFKADQQSRYIMISKDTTAKEVVIQAIREFAVTATPDQYSLCEVSVTPEGVIKQRRLPDQLSKLADRIQLSGRYYLKNNMETETLCSDEDAQELLRESQPKNPGDKKPVKSETSPVAPRAGSQQKAQSLPQPQQQPPPAHKINQGLQVPAVSLYPSRKKVPVKDLPPFGINSPQALKKILSLSEEGSLERHKKQAEDTISNASSQLSSPPTSPQSSPRKGYTLAPSGTVDNFSDSGHSEISSRSSIVSNSSFDSVPVSLHDERRQRHSVSIVETNLGMGRMERRTMIEPDQYSLGSYAPMSEGRGLYATATVISSPSTEELSQDQGDRASLDAADSGRGSWTSCSSGSHDNIQTIQHQRSWETLPFGHTHFDYSGDPAGLWASSSHMDQIMFSDHSTKYNRQNQSRESLEQAQSRASWASSTGYWGEDSEGDTGTIKRRGGKDVSIEAESSSLTSVTTEETKPVPMPAHIAVASSTTKGLIARKEGRYREPPPTPPGYIGIPITDFPEGHSHPARKPPDYNVALQRSRMVARSSDTAGPSSVQQPHGHPTSSRPVNKPQWHKPNESDPRLAPYQSQGFSTEEDEDEQVSAV
8-Br-cAMP-mediated activation of Ras via the construct, compared with wt-GRF4 (Ras [3]): almost abolished
